Reference: patent publication US20210246166A1 (Bayer, published 2021)
Numbered stars: 1 amine (or outer) side, 2 acyl side, 3 side chain; on linkers, the order of the positions; unused ones are H or OH. Bridge positions count the residues as written; N and C are the ends. Square brackets hold non-standard residues; d marks the D form. Ends that are not written are not given here. * marks the point of attachment. (Me)R = N(5)-methyl-L-arginine, CN(CCC[C@H](N[*:1])C(=O)[*:2])C(=N)N; Oic = O=C(O)[C@@H]1C[C@@H]2CCCC[C@@H]2N1; Cyclopentanecarbonyl = O=C(C1CCCC1)*; tBuAla = CC(C)(C)C[C@H](N)C(=O)O; Pen = CC(C)(S)[C@H](N)C(=O)O; NMeC = CN[C@@H](CS)C(=O)O; Orn = NCCC[C@H](N)C(=O)O; Sar = CNCC(=O)O

T1: recombinant human MASP1 active protease (amino acids 297-699, C-terminal His Tag) (human, UniProt P48740 297-699)
T1 sequence: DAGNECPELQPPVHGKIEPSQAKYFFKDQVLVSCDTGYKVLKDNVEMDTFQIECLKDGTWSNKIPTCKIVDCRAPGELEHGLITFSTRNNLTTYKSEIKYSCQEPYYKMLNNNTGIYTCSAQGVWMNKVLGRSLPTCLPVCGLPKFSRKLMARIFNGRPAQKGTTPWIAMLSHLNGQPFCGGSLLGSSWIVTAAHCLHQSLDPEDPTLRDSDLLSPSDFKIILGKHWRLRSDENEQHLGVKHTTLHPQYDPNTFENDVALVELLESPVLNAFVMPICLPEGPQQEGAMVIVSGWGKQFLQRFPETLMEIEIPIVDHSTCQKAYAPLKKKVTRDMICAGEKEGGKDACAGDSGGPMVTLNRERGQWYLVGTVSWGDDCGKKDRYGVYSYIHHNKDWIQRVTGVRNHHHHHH


Columns and labels:
[1] = biological target: recombinant human MASP2 active protease (amino acids 297-686, C-terminal His Tag) (human, UniProt O00187 297-686); assay: cell-based or functional assay
[2] = biological target: T1, recombinant human MASP1 active protease …; assay: cell-based or functional assay

recombinant human MASP2 active protease (amino acids 297-686, C-terminal His Tag), sequence (O00187 other isoform, or with tags, fused parts or gaps limits assumed): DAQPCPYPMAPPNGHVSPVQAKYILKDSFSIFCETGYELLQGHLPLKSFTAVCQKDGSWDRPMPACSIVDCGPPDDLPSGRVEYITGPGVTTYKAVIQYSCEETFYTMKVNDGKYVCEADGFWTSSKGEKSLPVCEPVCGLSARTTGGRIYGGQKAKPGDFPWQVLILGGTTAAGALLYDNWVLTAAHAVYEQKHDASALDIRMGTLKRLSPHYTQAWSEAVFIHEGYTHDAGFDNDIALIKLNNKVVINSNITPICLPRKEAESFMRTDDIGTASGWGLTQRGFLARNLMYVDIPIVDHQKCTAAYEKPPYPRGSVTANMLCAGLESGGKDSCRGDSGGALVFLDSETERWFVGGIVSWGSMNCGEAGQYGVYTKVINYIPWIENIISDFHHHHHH

human MASP2 IC50 [1] [nM]	human MASP1 IC50 [2] [nM]	Binder
740	59	AICS[(Me)R]S[tBuAla]PPI[Pen]IPD-NH2 (disulfide 3-11; N-terminus assumed; SMILES CC[C@H](C)[C@H](NC(=O)[C@H](C)N)C(=O)N[C@H]1CSSC(C)(C)[C@@H](C(=O)N[C@H](C(=O)N2CCC[C@H]2C(=O)N[C@@H](CC(=O)O)C(N)=O)[C@@H](C)CC)NC(=O)[C@H]([C@@H](C)CC)NC(=O)[C@@H]2CCCN2C(=O)[C@@H]2CCCN2C(=O)[C@H](CC(C)(C)C)NC(=O)[C@H](CO)NC(=O)[C@H](CCCN(C)C(=N)N)NC(=O)[C@H](CO)NC1=O) [Example 403: AIC+S-((Me)R)-S-((tBu)A)-PPI-(Pen)+IPD-NH2]
2100	58	[Sar]I[Pen]SRSLPPICIPD-OH (disulfide 3-11; N-terminus assumed; SMILES CC[C@H](C)[C@H](NC(=O)CNC)C(=O)N[C@@H]1C(=O)N[C@@H](CO)C(=O)N[C@@H](CCCNC(=N)N)C(=O)N[C@@H](CO)C(=O)N[C@@H](CC(C)C)C(=O)N2CCC[C@H]2C(=O)N2CCC[C@H]2C(=O)N[C@@H]([C@@H](C)CC)C(=O)N[C@H](C(=O)N[C@H](C(=O)N2CCC[C@H]2C(=O)N[C@@H](CC(=O)O)C(=O)O)[C@@H](C)CC)CSSC1(C)C) [Example 402: ((N-Me)G)-I-(Pen)+SRSLPPIC+IPD-OH]
22	54	Pivalic-ICSRS[tBuAla]PPI[NMeC]I-NH2 (disulfide 2-10) [Example 398: (Pivalic)-IC+SRS-((tBu)A)-PPI-((N-Me)C)+I-NH2]
980	63	[Sar][Orn][Orn][Orn]ICSRSLP[Oic]I[Pen]IP-NH2 (disulfide 6-14; N-terminus assumed; SMILES CC[C@H](C)[C@H](NC(=O)[C@H](CCCN)NC(=O)[C@H](CCCN)NC(=O)[C@H](CCCN)NC(=O)CNC)C(=O)N[C@H]1CSSC(C)(C)[C@@H](C(=O)N[C@H](C(=O)N2CCC[C@H]2C(N)=O)[C@@H](C)CC)NC(=O)[C@H]([C@@H](C)CC)NC(=O)[C@@H]2C[C@@H]3CCCC[C@@H]3N2C(=O)[C@@H]2CCCN2C(=O)[C@H](CC(C)C)NC(=O)[C@H](CO)NC(=O)[C@H](CCCNC(=N)N)NC(=O)[C@H](CO)NC1=O) [Example 405: ((N-Me)G)-(Orn)-(Orn)-(Orn)-IC+SRSLP-(Oic)-I-(Pen)+IP-NH2]
520	55	[Orn]AICSRS[tBuAla]PPI[NMeC]IPD-NH2 (disulfide 4-12; N-terminus assumed; SMILES CC[C@H](C)[C@H](NC(=O)[C@H](C)NC(=O)[C@@H](N)CCCN)C(=O)N[C@H]1CSSC[C@@H](C(=O)N[C@H](C(=O)N2CCC[C@H]2C(=O)N[C@@H](CC(=O)O)C(N)=O)[C@@H](C)CC)N(C)C(=O)[C@H]([C@@H](C)CC)NC(=O)[C@@H]2CCCN2C(=O)[C@@H]2CCCN2C(=O)[C@H](CC(C)(C)C)NC(=O)[C@H](CO)NC(=O)[C@H](CCCNC(=N)N)NC(=O)[C@H](CO)NC1=O) [Example 399: (Orn)-AIC+SRS-((tBu)A)-PPI-((N-Me)C)+IPD-NH2]
32	69	Cyclopentanecarbonyl-ICSRS[tBuAla]PPI[NMeC]I-NH2 (disulfide 2-10; SMILES CC[C@H](C)[C@H](NC(=O)[C@@H]1CSSC[C@H](NC(=O)[C@@H](NC(=O)C2CCCC2)[C@@H](C)CC)C(=O)N[C@@H](CO)C(=O)N[C@@H](CCCNC(=N)N)C(=O)N[C@@H](CO)C(=O)N[C@@H](CC(C)(C)C)C(=O)N2CCC[C@H]2C(=O)N2CCC[C@H]2C(=O)N[C@@H]([C@@H](C)CC)C(=O)N1C)C(N)=O) [Example 408: (Cyclopentanecarboxylic acid)-IC+SRS-((tBu)A)-PPI-((N-Me)C)+I-NH2]
